Each block holds one binder with its values, some of them ahead of it.
Experiments:
4H40-bN = target: T1, 4H40-bN; assay: two-hybrid library CCNG1;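 also: natural log of median RNA to DNA barcode read ratio; higher means stronger binding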
T1 chain: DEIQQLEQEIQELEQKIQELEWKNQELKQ

4H319-bN = target: T2, 4H319-bN; assay: two-hybrid library CCNG1;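 also: natural log of median RNA to DNA barcode read ratio; higher means stronger binding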
T2 chain: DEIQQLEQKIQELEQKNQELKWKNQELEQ

4H492-bN = target: T3, 4H492-bN; assay: two-hybrid library CCNG1;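 also: natural log of median RNA to DNA barcode read ratio; higher means stronger binding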
T3 chain: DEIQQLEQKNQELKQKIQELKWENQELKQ

4H741-bN = target: T4, 4H741-bN; assay: two-hybrid library CCNG1;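 also: natural log of median RNA to DNA barcode read ratio; higher means stronger binding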
T4 chain: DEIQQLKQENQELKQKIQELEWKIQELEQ

4H2915-bN = target: T5, 4H2915-bN; assay: two-hybrid library CCNG1;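 also: natural log of median RNA to DNA barcode read ratio; higher means stronger binding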
T5 chain: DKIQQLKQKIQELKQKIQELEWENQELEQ

4H348-bN = target: T6, 4H348-bN; assay: two-hybrid library CCNG1;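 also: natural log of median RNA to DNA barcode read ratio; higher means stronger binding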
T6 chain: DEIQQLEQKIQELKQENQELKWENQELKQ

4H3277-bN = target: T7, 4H3277-bN; assay: two-hybrid library CCNG1
T7 chain: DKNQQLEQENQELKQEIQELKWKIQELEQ

4H2839-bN = target: T8, 4H2839-bN; assay: two-hybrid library CCNG1
T8 chain: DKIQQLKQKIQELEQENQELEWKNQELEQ

4H2717-bN = target: T9, 4H2717-bN; assay: two-hybrid library CCNG1
T9 chain: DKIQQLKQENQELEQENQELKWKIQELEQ

4H3057-bN = target: T10, 4H3057-bN; assay: two-hybrid library CCNG1
T10 chain: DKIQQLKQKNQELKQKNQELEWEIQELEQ

4H477-bN = target: T11, 4H477-bN; assay: two-hybrid library CCNG1
T11 chain: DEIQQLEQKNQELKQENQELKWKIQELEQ

4H906-bA = target: T12, 4H906-bA; assay: two-hybrid library CCNG1
T12 chain: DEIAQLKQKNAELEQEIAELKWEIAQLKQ

4H3613-bA = target: T13, 4H3613-bA; assay: two-hybrid library CCNG1
T13 chain: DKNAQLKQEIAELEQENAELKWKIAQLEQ

4H3497-bA = target: T14, 4H3497-bA; assay: two-hybrid library CCNG1
T14 chain: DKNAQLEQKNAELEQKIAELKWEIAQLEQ

4H3926-bA = target: T15, 4H3926-bA; assay: two-hybrid library CCNG1
T15 chain: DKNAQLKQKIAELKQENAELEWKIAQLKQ

4H3628-bA = target: T16, 4H3628-bA; assay: two-hybrid library CCNG1
T16 chain: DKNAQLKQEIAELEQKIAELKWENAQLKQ

4H626-bA = target: T17, 4H626-bA; assay: two-hybrid library CCNG1
T17 chain: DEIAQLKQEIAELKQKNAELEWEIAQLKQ

4H3638-bA = target: T18, 4H3638-bA; assay: two-hybrid library CCNG1
T18 chain: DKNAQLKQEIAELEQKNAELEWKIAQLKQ

4H591-bA = target: T19, 4H591-bA; assay: two-hybrid library CCNG1
T19 chain: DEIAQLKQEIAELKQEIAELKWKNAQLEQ

4H3462-bA = target: T20, 4H3462-bA; assay: two-hybrid library CCNG1
T20 chain: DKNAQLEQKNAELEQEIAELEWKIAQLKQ

4H3298-bA = target: T21, 4H3298-bA; assay: two-hybrid library CCNG1
T21 chain: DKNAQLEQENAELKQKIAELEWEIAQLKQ

4H656-AA = target: T22, 4H656-AA; assay: two-hybrid library CCmax; details: mean of both orientations
T22 chain: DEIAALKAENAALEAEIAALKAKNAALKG

4H497-AA = target: T23, 4H497-AA; assay: two-hybrid library CCmax; details: mean of both orientations
T23 chain: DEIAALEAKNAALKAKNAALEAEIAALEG

4H3029-AA = target: T24, 4H3029-AA; assay: two-hybrid library CCmax; details: mean of both orientations
T24 chain: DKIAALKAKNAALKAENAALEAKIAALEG

4H2742-AA = target: T25, 4H2742-AA; assay: two-hybrid library CCmax; details: mean of both orientations
T25 chain: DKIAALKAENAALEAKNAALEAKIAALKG

4H428-AA = target: T26, 4H428-AA; assay: two-hybrid library CCmax; details: mean of both orientations
T26 chain: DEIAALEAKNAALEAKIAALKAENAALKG

4H2283-AA = target: T27, 4H2283-AA; assay: two-hybrid library CCmax; details: mean of both orientations
T27 chain: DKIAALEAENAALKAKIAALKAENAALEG

4H3591-AA = target: T28, 4H3591-AA; assay: two-hybrid library CCmax; details: mean of both orientations
T28 chain: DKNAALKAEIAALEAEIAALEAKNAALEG

4H3446-AA = target: T29, 4H3446-AA; assay: two-hybrid library CCmax; details: mean of both orientations
T29 chain: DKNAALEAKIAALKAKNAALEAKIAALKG

4H3709-AA = target: T30, 4H3709-AA; assay: two-hybrid library CCmax; details: mean of both orientations
T30 chain: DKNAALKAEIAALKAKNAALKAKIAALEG

4H2991-AA = target: T31, 4H2991-AA; assay: two-hybrid library CCmax; details: mean of both orientations
T31 chain: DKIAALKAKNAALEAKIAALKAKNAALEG

4H3666-AA = target: T32, 4H3666-AA; assay: two-hybrid library CCmax; details: mean of both orientations
T32 chain: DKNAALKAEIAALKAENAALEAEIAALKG

4H3939-AA = target: T33, 4H3939-AA; assay: two-hybrid library CCmax; details: mean of both orientations
T33 chain: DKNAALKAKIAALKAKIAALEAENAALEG

4H3121-AA = target: T34, 4H3121-AA; assay: two-hybrid library CCmax; details: mean of both orientations
T34 chain: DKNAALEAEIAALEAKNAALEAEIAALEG

4H3102-AA = target: T35, 4H3102-AA; assay: two-hybrid library CCmax; details: mean of both orientations
T35 chain: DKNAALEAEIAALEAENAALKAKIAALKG

4H478-AA = target: T36, 4H478-AA; assay: two-hybrid library CCmax; details: mean of both orientations
T36 chain: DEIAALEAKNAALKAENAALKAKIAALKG

4H3066-AA = target: T37, 4H3066-AA; assay: two-hybrid library CCmax; details: mean of both orientations
T37 chain: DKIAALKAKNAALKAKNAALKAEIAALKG

4H391-AA = target: T38, 4H391-AA; assay: two-hybrid library CCmax; details: mean of both orientations
T38 chain: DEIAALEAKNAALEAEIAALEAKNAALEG

4H971-AA = target: T39, 4H971-AA; assay: two-hybrid library CCmax; details: mean of both orientations
T39 chain: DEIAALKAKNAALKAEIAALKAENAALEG

4H3920-AA = target: T40, 4H3920-AA; assay: two-hybrid library CCmax; details: mean of both orientations
T40 chain: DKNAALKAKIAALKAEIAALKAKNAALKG

4H675-AA = target: T41, 4H675-AA; assay: two-hybrid library CCmax; details: mean of both orientations
T41 chain: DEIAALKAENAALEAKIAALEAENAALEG

4H2248-AA = target: T42, 4H2248-AA; assay: two-hybrid library CCmax
T42 chain: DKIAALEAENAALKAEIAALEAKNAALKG

4H2713-AA = target: T43, 4H2713-AA; assay: two-hybrid library CCmax; details: mean of both orientations
T43 chain: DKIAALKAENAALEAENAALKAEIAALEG

4H2948-AA = target: T44, 4H2948-AA; assay: two-hybrid library CCmax; details: mean of both orientations
T44 chain: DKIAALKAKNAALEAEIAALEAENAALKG

4H3417-AA = target: T45, 4H3417-AA; assay: two-hybrid library CCmax; details: mean of both orientations
T45 chain: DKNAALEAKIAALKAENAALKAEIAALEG

4H3628-AA = target: T46, 4H3628-AA; assay: two-hybrid library CCmax; details: mean of both orientations
T46 chain: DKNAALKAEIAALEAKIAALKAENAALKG

O7 = target: T47, O7; assay: two-hybrid library CCNG1
T47 chain: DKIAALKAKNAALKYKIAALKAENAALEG

O4 = target: T48, O4; assay: two-hybrid library CCNG1
T48 chain: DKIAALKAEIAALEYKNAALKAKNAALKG

O8 = target: T49, O8; assay: two-hybrid library CCNG1
T49 chain: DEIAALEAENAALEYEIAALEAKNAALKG

O6 = target: T50, O6; assay: two-hybrid library CCNG1
T50 chain: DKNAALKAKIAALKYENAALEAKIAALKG

O5 = target: T51, O5; assay: two-hybrid library CCNG1
T51 chain: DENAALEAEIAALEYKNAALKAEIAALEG

O9 = target: T52, O9; assay: two-hybrid library CCNG1
T52 chain: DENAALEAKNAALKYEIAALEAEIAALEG

4H477-bA = target: T53, 4H477-bA; assay: two-hybrid library CCNG1
T53 chain: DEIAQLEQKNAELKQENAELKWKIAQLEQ

4H3277-bA = target: T54, 4H3277-bA; assay: two-hybrid library CCNG1
T54 chain: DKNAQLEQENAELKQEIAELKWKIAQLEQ

4H40-bA = target: T55, 4H40-bA; assay: two-hybrid library CCNG1
T55 chain: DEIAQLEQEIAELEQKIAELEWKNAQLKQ

4H492-bA = target: T56, 4H492-bA; assay: two-hybrid library CCNG1
T56 chain: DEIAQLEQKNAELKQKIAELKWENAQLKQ

4H348-bA = target: T57, 4H348-bA; assay: two-hybrid library CCNG1
T57 chain: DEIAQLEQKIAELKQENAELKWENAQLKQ

4H741-bA = target: T58, 4H741-bA; assay: two-hybrid library CCNG1
T58 chain: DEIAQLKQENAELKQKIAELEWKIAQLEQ

interaction score (4H40-bN): -1.61 | interaction score (4H319-bN): -0.684 | interaction score (4H492-bN): -0.854 | interaction score (4H741-bN): -2.58 | interaction score (4H2915-bN): -0.6 | interaction score (4H348-bN): -0.289 | interaction score (4H3277-bN): -1.11 | interaction score (4H2839-bN): -0.648 | interaction score (4H2717-bN): 0.00236 | interaction score (4H3057-bN): -1.99 | interaction score (4H477-bN): 1.4
B1: 4H2717-bN (peptide)
chain: DKIQQLKQENQELEQENQELKWKIQELEQ

interaction score (4H906-bA): -1.46 | interaction score (4H3613-bA): -0.827 | interaction score (4H3497-bA): 0.917 | interaction score (4H3926-bA): 0.717 | interaction score (4H3628-bA): -1.42 | interaction score (4H626-bA): -0.693 | interaction score (4H3638-bA): -1.05 | interaction score (4H591-bA): 0.153 | interaction score (4H3462-bA): 0.257
B2: 4H3462-bA (peptide)
chain: DKNAQLEQKNAELEQEIAELEWKIAQLKQ

interaction score (4H906-bA): -0.638 | interaction score (4H3613-bA): 0.681 | interaction score (4H3497-bA): -0.263 | interaction score (4H3926-bA): -0.651 | interaction score (4H3628-bA): -0.0439 | interaction score (4H626-bA): -1.12 | interaction score (4H591-bA): -0.699 | interaction score (4H3298-bA): 1.02 | interaction score (4H3462-bA): 0.667
B3: 4H3298-bA (peptide)
chain: DKNAQLEQENAELKQKIAELEWEIAQLKQ

interaction score (4H656-AA): -0.26 | interaction score (4H497-AA): -2.18 | interaction score (4H3029-AA): -1.79 | interaction score (4H2742-AA): -1.88 | interaction score (4H428-AA): -0.478 | interaction score (4H2283-AA): 2.34 | interaction score (4H3591-AA): -1.39 | interaction score (4H3446-AA): 0.189 | interaction score (4H3709-AA): -1.23 | interaction score (4H2991-AA): -0.183 | interaction score (4H3666-AA): -0.505 | interaction score (4H3939-AA): -1.4 | interaction score (4H3121-AA): -1.69 | interaction score (4H3102-AA): 2.22 | interaction score (4H478-AA): 0.536 | interaction score (4H3066-AA): -1.25 | interaction score (4H391-AA): -1.16 | interaction score (4H971-AA): 1.05 | interaction score (4H3920-AA): -1.51 | interaction score (4H675-AA): 0.827 | interaction score (4H2248-AA): 2.16 | interaction score (4H2713-AA): -1.2 | interaction score (4H2948-AA): -0.353 | interaction score (4H3417-AA): 0.548 | interaction score (4H3628-AA): -1.59
B4: 4H2248-AA (peptide)
chain: DKIAALEAENAALKAEIAALEAKNAALKG

interaction score (O7): -2.43 | interaction score (O4): -2.15 | interaction score (O8): -2.07 | interaction score (O6): -2.27 | interaction score (O5): -2.52 | interaction score (O9): -1.88
B5: O4 (peptide)
chain: DKIAALKAEIAALEYKNAALKAKNAALKG

interaction score (4H906-bA): -0.838 | interaction score (4H477-bA): -0.644 | interaction score (4H3613-bA): -0.514 | interaction score (4H3497-bA): -0.961 | interaction score (4H3926-bA): -0.539 | interaction score (4H3628-bA): -0.955 | interaction score (4H626-bA): -0.429 | interaction score (4H3277-bA): 1.38 | interaction score (4H40-bA): -1.08 | interaction score (4H591-bA): -1.19 | interaction score (4H492-bA): -0.379 | interaction score (4H3298-bA): -0.215 | interaction score (4H348-bA): -0.856 | interaction score (4H3462-bA): -0.372 | interaction score (4H741-bA): -1.81
B6: 4H3277-bA (peptide)
chain: DKNAQLEQENAELKQEIAELKWKIAQLEQ

Reference: PMC10397247
